Substrate: O=C(O)c1ccc(O)c(O)c1
Test: purified protein
Type: biochemical, Comamonas testosteroni
Conditions: pH 7.5, room temperature, anaerobically purified enzyme, dithionite-treated, O2 co-substrate

B1: PmdAB (protocatechuate 4,5-dioxygenase) (Comamonas testosteroni) (protein)
chain 1: MARITASVFTSHVPAIGAAMDMGKTQEAYWAPLFKGYDFSRQWMKDNKPDVIFLVYNDHATAFSLDCIPTFAIGTAAEFQPADEGWGPRPVPKVVGHPDLASHIAQSVIQQDFDLTIVNKMDVDHGLTVPLSLMCGEQDPKTGSWPCPVIPFAVNVVQYPVPTGQRCFNLGRAIRKAVESYDQDINVHIWGTGGMSHQLQGARAGLINKEWDNQFLDLLVENPHGLAQMPHIDYVREAGSEGIELVMWLIARGAMSDVDGPAPLPKVAHRFYHVPASNTAVGHLILENQ
chain 2: MALEKPYLDVPGTIIFDAEQSRKGYWLNQFCMSLMKAENRERFRADERAYLDEWAMTEEQKQAVLARDLNWCMRTGGNIYFLAKIGATDGKSFQQMAGSMTGMTEEEYRAMMMGGGRSAEGNRYVGEDGDAQAHHQPQGSAGNQNKEGN
notes: full-length, codon-optimized, N-terminal His6-PmdA co-expressed with PmdB in E. coli BL21(DE3); purified anaerobically; alpha2beta2 heterotetramer, nonheme Fe(II)
  Km: 33.00 ± 12.0 µM
  kcat: 107 ± 7.5 s⁻¹
  kcat/Km: 3.3e+06 M⁻¹ s⁻¹

— article PMC11489326, “Characterization of lignin-degrading enzyme PmdC, which catalyzes a key step in the synthesis of polymer precursor 2-pyrone-4,6-dicarboxylic acid” (The Journal of Biological Chemistry, 2024)
